Measured values reported in the supplement of paper PMC10724198.
± gives the standard deviation of the averaged measurements.

Test system: Saccharomyces cerevisiae
Test: protein stability index of tFT-peptide fusion (C-terminal peptide) (PSI (0-1 scale)); higher = more stable (slower turnover)
Settings: temperature: 30 C
Procedure: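 MPS profiling in S. cerevisiae of the yeast C-terminome library: the last 12 aa of each annotated ORF are fused to the C-terminus of a sfGFP-mCherry timer, after a GGGS linker. Cells are FACS-sorted into 8 mCherry/sfGFP bins and deep-sequenced. PSI runs from 0 (unstable) to 1 (stable); wild type and das1Δ backgrounds, two technical replicates each.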

[1] = genetic background: das1 deletion

YSDEASAQKKRF [RPS2 C-terminal 12 aa]
protein stability index [1]: 0.698 ± 0.0098
protein stability index (genetic background: wild type): 0.709 ± 0.039

YLLENEPKDSFA [DCP1 C-terminal 12 aa]
protein stability index [1]: 0.703 ± 0.032
protein stability index (genetic background: wild type): 0.731 ± 0.029

SKNILSFFTRKK [RAD30 C-terminal 12 aa]
protein stability index [1]: 0.774 ± 0.025
protein stability index (genetic background: wild type): 0.673 ± 0.0077

RYRNQIDDFDFS [IMP3 C-terminal 12 aa]
protein stability index [1]: 0.71 ± 0.034
protein stability index (genetic background: wild type): 0.754 ± 0.097

LEYYSNRDNDMN [RIF1 C-terminal 12 aa]
protein stability index [1]: 0.672 ± 0.042
protein stability index (genetic background: wild type): 0.69 ± 0.026

AYECAKHFLMTY [MRS3 C-terminal 12 aa]
protein stability index [1]: 0.689 ± 0.033
protein stability index (genetic background: wild type): 0.653 ± 0.057

VVDLIMEYLQDT [YDL057W C-terminal 12 aa]
protein stability index [1]: 0.699 ± 0.013
protein stability index (genetic background: wild type): 0.741 ± 0.078

GALPTTDPLFQW [YJL043W C-terminal 12 aa]
protein stability index [1]: 0.7371 ± 0.0031
protein stability index (genetic background: wild type): 0.704 ± 0.0071

LVLLLQIYFFSF [YGR242W C-terminal 12 aa]
protein stability index [1]: 0.277 ± 0.03
protein stability index (genetic background: wild type): 0.296 ± 0.0078

KAIRRCQAIGLM [RSM18 C-terminal 12 aa]
protein stability index [1]: 0.683 ± 0.014
protein stability index (genetic background: wild type): 0.672 ± 0.0076

TTTEVETETAKQ [YPR063C C-terminal 12 aa]
protein stability index [1]: 0.679 ± 0.011
protein stability index (genetic background: wild type): 0.7 ± 0.027

KSKFQERLQQGL [RET3 C-terminal 12 aa]
protein stability index [1]: 0.701 ± 0.0071
protein stability index (genetic background: wild type): 0.6467 ± 0.0052

ELPSYKKTSKQN [PSG1 C-terminal 12 aa]
protein stability index [1]: 0.722 ± 0.03
protein stability index (genetic background: wild type): 0.701 ± 0.077

KKKKPAAEGAAK [TMA22 C-terminal 12 aa]
protein stability index [1]: 0.696 ± 0.026
protein stability index (genetic background: wild type): 0.708 ± 0.043

HPCTSLTSVIVV [YGL072C C-terminal 12 aa]
protein stability index [1]: 0.36 ± 0.045
protein stability index (genetic background: wild type): 0.433 ± 0.051

QIDDVNILKKNP [LIP2 C-terminal 12 aa]
protein stability index [1]: 0.709 ± 0.009
protein stability index (genetic background: wild type): 0.702 ± 0.053

FERNYFPYSAVY [CLG1 C-terminal 12 aa]
protein stability index [1]: 0.6077 ± 0.0039
protein stability index (genetic background: wild type): 0.608 ± 0.018

VKSNPQPAYTFQ [YFR012W-A C-terminal 12 aa]
protein stability index [1]: 0.679 ± 0.02
protein stability index (genetic background: wild type): 0.6969 ± 2.8e-05

RACPLRPKSLIA [YMR315W-A C-terminal 12 aa]
protein stability index [1]: 0.655 ± 0.0078
protein stability index (genetic background: wild type): 0.667 ± 0.032

VLERVSRGAGSH [COF1 C-terminal 12 aa]
protein stability index [1]: 0.7039 ± 0.0025
protein stability index (genetic background: wild type): 0.688 ± 0.036

FFSFIITIPFMV [YNL146W C-terminal 12 aa]
protein stability index [1]: 0.305 ± 0.01
protein stability index (genetic background: wild type): 0.2042 ± 0.0015

TGKVFTRTNQSK [YFL019C C-terminal 12 aa]
protein stability index [1]: 0.71 ± 0.035
protein stability index (genetic background: wild type): 0.698 ± 0.011

KQMYKYHIIVLF [YBL083C C-terminal 12 aa]
protein stability index [1]: 0.305 ± 0.035
protein stability index (genetic background: wild type): 0.106 ± 0.0037

IFHQLQKKINRS [IWR1 C-terminal 12 aa]
protein stability index [1]: 0.703 ± 0.0083
protein stability index (genetic background: wild type): 0.6656 ± 0.0027

EERDRRRAQQGL [RPS4A C-terminal 12 aa]
protein stability index [1]: 0.6948 ± 0.0053
protein stability index (genetic background: wild type): 0.692 ± 0.05

EPTLKLSNIYRQ [YBR174C C-terminal 12 aa]
protein stability index [1]: 0.7092 ± 0.0033
protein stability index (genetic background: wild type): 0.71982 ± 0.00048

VLPTWADKVINE [SPE4 C-terminal 12 aa]
protein stability index [1]: 0.69 ± 0.0095
protein stability index (genetic background: wild type): 0.677 ± 0.012

GLQVMNEMKQRW [ECM25 C-terminal 12 aa]
protein stability index [1]: 0.7091 ± 0.0069
protein stability index (genetic background: wild type): 0.724 ± 0.053

DSTVLDFVESIS [HER2 C-terminal 12 aa]
protein stability index [1]: 0.7089 ± 0.005
protein stability index (genetic background: wild type): 0.694 ± 0.06

MDGFNDPFAAAA [GIP2 C-terminal 12 aa]
protein stability index [1]: 0.736 ± 0.028
protein stability index (genetic background: wild type): 0.752 ± 0.072

IGRRKLVGYKHH [ATP20 C-terminal 12 aa]
protein stability index [1]: 0.702 ± 0.02
protein stability index (genetic background: wild type): 0.666 ± 0.015

KQIDVHLDKNKA [GCD7 C-terminal 12 aa]
protein stability index [1]: 0.6862 ± 0.004
protein stability index (genetic background: wild type): 0.697 ± 0.0038

MRKHLRVSPFLF [YDL071C C-terminal 12 aa]
protein stability index [1]: 0.711 ± 0.016
protein stability index (genetic background: wild type): 0.329 ± 0.0068

DHSNAFESILIF [TRS130 C-terminal 12 aa]
protein stability index [1]: 0.6353 ± 0.0054
protein stability index (genetic background: wild type): 0.684 ± 0.093

LRANANMPTPSL [RLF2 C-terminal 12 aa]
protein stability index [1]: 0.7083 ± 0.0022
protein stability index (genetic background: wild type): 0.665 ± 0.0083

KKKVEFSFPDDI [MIL1 C-terminal 12 aa]
protein stability index [1]: 0.701 ± 0.0087
protein stability index (genetic background: wild type): 0.73 ± 0.016

QQQKVLAATLEK [HVG1 C-terminal 12 aa]
protein stability index [1]: 0.73 ± 0.0088
protein stability index (genetic background: wild type): 0.656 ± 0.012

KKKSRAKKPGNV [HDA3 C-terminal 12 aa]
protein stability index [1]: 0.685 ± 0.011
protein stability index (genetic background: wild type): 0.734 ± 0.041

KRFTTNRNGNVI [GEF1 C-terminal 12 aa]
protein stability index [1]: 0.732 ± 0.022
protein stability index (genetic background: wild type): 0.696 ± 0.027

GKNKKKSKHSKK [PRP43 C-terminal 12 aa]
protein stability index [1]: 0.702 ± 0.057
protein stability index (genetic background: wild type): 0.651 ± 0.0029

IAPSGKYYFPFG [YMR031W-A C-terminal 12 aa]
protein stability index [1]: 0.718 ± 0.011
protein stability index (genetic background: wild type): 0.684 ± 0.011

LVKLYISFFFMC [YBR144C C-terminal 12 aa]
protein stability index [1]: 0.313 ± 0.0049
protein stability index (genetic background: wild type): 0.136 ± 0.0087

QLITLLSKHLRT [HMS2 C-terminal 12 aa]
protein stability index [1]: 0.693 ± 0.017
protein stability index (genetic background: wild type): 0.676 ± 0.042

DIPSEEGTKVIL [BSC3 C-terminal 12 aa]
protein stability index [1]: 0.701 ± 0.016
protein stability index (genetic background: wild type): 0.691 ± 0.011

KSEGGDLPHLVQ [SPS4 C-terminal 12 aa]
protein stability index [1]: 0.701 ± 0.024
protein stability index (genetic background: wild type): 0.68 ± 0.013

FVSSDPGLTQWL [HNT2 C-terminal 12 aa]
protein stability index [1]: 0.745 ± 0.014
protein stability index (genetic background: wild type): 0.713 ± 0.0078

EAADEADEADEE [RPS9A C-terminal 12 aa]
protein stability index [1]: 0.6914 ± 0.0068
protein stability index (genetic background: wild type): 0.747 ± 0.017

NDNHNPFYIREE [CDC26 C-terminal 12 aa]
protein stability index [1]: 0.723 ± 0.021
protein stability index (genetic background: wild type): 0.705 ± 0.049

FVLKCIKDMYAK [IRC25 C-terminal 12 aa]
protein stability index [1]: 0.682 ± 0.018
protein stability index (genetic background: wild type): 0.681 ± 0.017

VVPVLMGNMKVA [YEL073C C-terminal 12 aa]
protein stability index [1]: 0.69 ± 0.01
protein stability index (genetic background: wild type): 0.634 ± 0.053

RSPKGNSIIEEI [BTN2 C-terminal 12 aa]
protein stability index [1]: 0.695 ± 0.026
protein stability index (genetic background: wild type): 0.655 ± 0.02

MKVLQLGFSWGG [IRC7 C-terminal 12 aa]
protein stability index [1]: 0.7148 ± 0.0053
protein stability index (genetic background: wild type): 0.6814 ± 0.0067

KAPKILYKRKGY [HPA2 C-terminal 12 aa]
protein stability index [1]: 0.685 ± 0.024
protein stability index (genetic background: wild type): 0.675 ± 0.036

WAREQQKRQLSL [KAP95 C-terminal 12 aa]
protein stability index [1]: 0.725 ± 0.0096
protein stability index (genetic background: wild type): 0.729 ± 0.019

GKCTSSKFKLSS [KRE6 C-terminal 12 aa]
protein stability index [1]: 0.71 ± 0.026
protein stability index (genetic background: wild type): 0.619 ± 0.024

QIPPEVQKWYYV [PPA2 C-terminal 12 aa]
protein stability index [1]: 0.71952 ± 0.00036
protein stability index (genetic background: wild type): 0.593 ± 0.02

FRGKRYHTIKRQ [MSS51 C-terminal 12 aa]
protein stability index [1]: 0.709 ± 0.0045
protein stability index (genetic background: wild type): 0.643 ± 0.035

LTLARYRAKGML [TOM71 C-terminal 12 aa]
protein stability index [1]: 0.6936 ± 0.0042
protein stability index (genetic background: wild type): 0.657 ± 0.018

YISDHIWKTSSH [YOR302W C-terminal 12 aa]
protein stability index [1]: 0.743 ± 0.04
protein stability index (genetic background: wild type): 0.698 ± 0.035

DNQSLPNSEKIK [CST6 C-terminal 12 aa]
protein stability index [1]: 0.711 ± 0.017
protein stability index (genetic background: wild type): 0.7044 ± 0.0021

STSDSENFMQQH [RPI1 C-terminal 12 aa]
protein stability index [1]: 0.705 ± 0.013
protein stability index (genetic background: wild type): 0.729 ± 0.049
